According to patent US20160058886A1:

Experiments:
[1] = biological target: nucleolin at the surface of MDA-MB-231 and MDA-MB-435S breast cancer cells (UniProt P19338); assay: flow cytometry, rhodamine geometric mean fluorescence, MDA-MB-231 cells
[2] = biological target: nucleolin at the surface of MDA-MB-231 and MDA-MB-435S breast cancer cells (UniProt P19338); assay: flow cytometry, rhodamine geometric mean fluorescence, MDA-MB-435S cells

Chain of UniProt P19338 (P19338 2-710 limits assumed): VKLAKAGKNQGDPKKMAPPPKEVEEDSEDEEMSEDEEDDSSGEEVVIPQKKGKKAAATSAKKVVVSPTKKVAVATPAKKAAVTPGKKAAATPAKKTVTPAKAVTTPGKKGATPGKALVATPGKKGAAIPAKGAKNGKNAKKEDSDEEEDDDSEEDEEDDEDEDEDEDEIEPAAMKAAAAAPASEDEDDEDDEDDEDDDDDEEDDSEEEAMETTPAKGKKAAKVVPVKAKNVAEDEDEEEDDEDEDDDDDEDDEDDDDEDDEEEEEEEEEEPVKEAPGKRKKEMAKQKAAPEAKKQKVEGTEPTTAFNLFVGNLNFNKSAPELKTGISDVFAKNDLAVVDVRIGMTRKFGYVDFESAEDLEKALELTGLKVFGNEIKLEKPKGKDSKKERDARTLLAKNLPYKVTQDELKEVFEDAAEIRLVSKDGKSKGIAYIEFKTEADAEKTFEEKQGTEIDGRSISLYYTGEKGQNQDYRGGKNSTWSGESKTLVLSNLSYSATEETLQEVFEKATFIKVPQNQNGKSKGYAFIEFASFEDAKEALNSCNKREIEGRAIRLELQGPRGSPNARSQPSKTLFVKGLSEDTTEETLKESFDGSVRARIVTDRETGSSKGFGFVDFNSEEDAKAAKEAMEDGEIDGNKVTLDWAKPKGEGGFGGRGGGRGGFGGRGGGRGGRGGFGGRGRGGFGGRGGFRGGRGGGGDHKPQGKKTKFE

higher cellular association of the CD44+/ALDHhi population against the CD44-/ALDH-/low population (MDA-MB-231) [1]: 64%
higher cellular association of the CD44+/ALDHhi population against the CD44-/ALDH-/low population (MDA-MB-435S) [2]: 61%
Substance: F3 peptide-targeted liposomes (F3 peptide, SEQ ID NO:1, coupled through DSPE-PEG2k to pH-sensitive liposomes)
